Results as given in publication PMC12572374, “Regulation of ADP-ribosyltransferase activity by ART domain dimerization in PARP15” (Nature Communications, 2025).
Values belong to the molecule of their own block, whether it stands above or below them.

Columns and labels:
PARP15 [1] = target: T1, PARP15 (Homo sapiens, UniProt Q460N3, R576E); test: X-ray crystal structure; also nanoDSF thermal shift; assay type: binding
T1 construct: ART domain, Asn481-Ala678
T1 sequence (Q460N3 481-678 R576E): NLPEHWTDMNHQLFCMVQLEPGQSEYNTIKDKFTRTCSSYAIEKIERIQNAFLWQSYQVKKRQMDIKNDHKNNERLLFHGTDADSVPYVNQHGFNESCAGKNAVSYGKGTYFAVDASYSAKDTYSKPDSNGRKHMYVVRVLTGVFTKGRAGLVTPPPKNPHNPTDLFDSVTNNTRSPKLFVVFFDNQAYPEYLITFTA

PARP15 [2] = target: T2, PARP15 (Homo sapiens, UniProt Q460N3, R576D); test: nanoDSF thermal shift at […] ligand; assay type: binding
T2 construct: ART domain, Asn481-Ala678
T2 sequence (Q460N3 481-678 R576D): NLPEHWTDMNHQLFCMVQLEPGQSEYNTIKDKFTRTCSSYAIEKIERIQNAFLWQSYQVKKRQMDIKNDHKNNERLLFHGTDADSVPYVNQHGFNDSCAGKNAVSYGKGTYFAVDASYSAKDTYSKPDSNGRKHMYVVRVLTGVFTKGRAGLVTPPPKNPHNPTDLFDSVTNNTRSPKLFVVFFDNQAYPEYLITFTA

PARP10 = target: T3, PARP10 (Homo sapiens, UniProt Q53GL7); test: auto-MARylation assay with purified enzyme (MacroGreen overlay); assay type: biochemical
T3 construct: ART domain, Asn819-Val1007
T3 sequence (Q53GL7 819-1007): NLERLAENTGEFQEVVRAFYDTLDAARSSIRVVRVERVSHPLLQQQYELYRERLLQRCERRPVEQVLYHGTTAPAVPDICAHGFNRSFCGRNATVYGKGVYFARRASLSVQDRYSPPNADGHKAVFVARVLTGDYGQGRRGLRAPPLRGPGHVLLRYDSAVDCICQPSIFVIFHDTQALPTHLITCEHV

PARP15 [3] = target: T4, PARP15 (Homo sapiens, UniProt Q460N3); test: ITC; also HDX-MS; assay type: binding
T4 construct: ART domain, Asn481-Ala678
T4 sequence (Q460N3 481-678): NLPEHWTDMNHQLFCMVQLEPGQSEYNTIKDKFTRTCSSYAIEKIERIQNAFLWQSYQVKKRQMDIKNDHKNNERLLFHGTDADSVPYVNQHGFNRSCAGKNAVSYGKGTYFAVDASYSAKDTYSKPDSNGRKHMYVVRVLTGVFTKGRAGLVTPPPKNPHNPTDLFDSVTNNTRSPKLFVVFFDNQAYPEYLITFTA

PARP15 [4] = target: T1, PARP15; test: ITC; also HDX-MS; assay type: binding
[5] = target: T5, human PARP15 ART domain (Asn481-Ala678), wild type (human) (UniProt Q460N3)
T5 sequence: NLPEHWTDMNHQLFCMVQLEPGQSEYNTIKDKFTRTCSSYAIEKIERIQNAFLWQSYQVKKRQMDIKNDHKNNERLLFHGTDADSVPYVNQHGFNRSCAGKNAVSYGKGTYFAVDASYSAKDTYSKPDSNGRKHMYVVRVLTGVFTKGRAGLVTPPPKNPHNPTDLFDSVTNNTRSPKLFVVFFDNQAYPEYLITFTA

[6] = target: the molecule itself; test: AUC; sedimentation velocity at 0.5 µM ART domain, 58,000 rpm for 5 h, measured at 220 nm, no NAD+; discrete model genetic algorithm (DMGA) analysis; dimer to monomers
[7] = target: the molecule itself; test: SEC-MALS; SEC-RALS/LALS (OMNISEC), Superdex 200 Increase 10/300 GL; 120 µl at 0.75 mg/ml PARP15 constructs, 0.35 mg/ml PARP14 ART, 0.65 mg/ml PARP10 ART; 50 mM HEPES pH 7.5, 300 mM NaCl, 1 mM TCEP
[8] = target: the molecule itself; test: AUC; sedimentation velocity, 0.5 µM PARP15 ART, 58,000 rpm, measured at 220 nm; Discrete Model Genetic Algorithm fit, 100 Monte Carlo iterations; no NAD+ treatment; dimer to monomers
[9] = target: the molecule itself; test: AUC; sedimentation velocity at 9 µM protein, auto-MARylated and unmodified ART; 20 mM sodium phosphate pH 7, 150 mM NaCl; van Holde-Weischet analysis
[10] = target: the molecule itself; test: HDX-MS; 2 mg/ml m2-ART in 50 mM TBS pH 7.4, labelling 0-9000 s at 20 °C

Molecule: NC(=O)c1cccc(N)c1 [3-aminobenzamide]
- X-ray crystal structure; also nanoDSF thermal shift (PARP15 [1]): we crystallized the monomeric R576E mutant in complex with the nicotinamide analog 3-aminobenzamide (3AB)
- nanoDSF thermal shift at 1 mM ligand (PARP15 [2]): thermal stabilities and ligand-induced Tm-shifts indicated they were properly folded

Molecule: NC(=O)c1ccc[n+]([C@@H]2O[C@H](COP(=O)([O-])OP(=O)(O)OC[C@H]3O[C@@H](n4cnc5c(N)ncnc54)[C@H](O)[C@@H]3O)[C@@H](O)[C@H]2O)c1 [NAD+]
- auto-MARylation assay with purified enzyme (MacroGreen overlay) (PARP10): PARP10 ART domain auto-modification increased in a roughly linear fashion over the entire concentration range

- Kd (PARP15 [3]): 24 µM
- Kd (PARP15 [4]): 47 µM
Molecule: Nc1ncnc2c1ncn2[C@@H]1O[C@H](C(=O)N2CCN(CC(=O)Nc3cccc4c3CNC4=O)CC2)[C@@H](O)[C@H]1O [EB-47]

- MARylation of plate-bound PARP15 macrodomain-2 by 250 nM wild-type ART with increasing H559Y (2-fold dilution series from 2 µM), MacroGreen overlay [5]: 500 nM
B1: PARP15 ART domain (Asn481-Ala678) H559Y, catalytically inactive (domain or fragment)
chain: NLPEHWTDMNHQLFCMVQLEPGQSEYNTIKDKFTRTCSSYAIEKIERIQNAFLWQSYQVKKRQMDIKNDHKNNERLLFYGTDADSVPYVNQHGFNRSCAGKNAVSYGKGTYFAVDASYSAKDTYSKPDSNGRKHMYVVRVLTGVFTKGRAGLVTPPPKNPHNPTDLFDSVTNNTRSPKLFVVFFDNQAYPEYLITFTA

B2: human PARP15 ART domain (Asn481-Ala678), wild type (domain or fragment, UniProt Q460N3 481-678, looked up)
chain: NLPEHWTDMNHQLFCMVQLEPGQSEYNTIKDKFTRTCSSYAIEKIERIQNAFLWQSYQVKKRQMDIKNDHKNNERLLFHGTDADSVPYVNQHGFNRSCAGKNAVSYGKGTYFAVDASYSAKDTYSKPDSNGRKHMYVVRVLTGVFTKGRAGLVTPPPKNPHNPTDLFDSVTNNTRSPKLFVVFFDNQAYPEYLITFTA
notes: PARP15, human, ADP-ribosyltransferase (ART) domain, residues Asn481-Ala678; numbers count on the canonical isoform (isoform 1); cDNA in pNIC-Bsa4 (GenBank EF198106 is the vector); also called PARP15 ART WT; WT PARP15; source: E. coli BL21(DE3), purified (HiTrap TALON, Superdex 75 SEC)
- Kd [6]: 0.313 µM
- stoichiometry N [7]: 2

B3: human PARP15 ART domain (Asn481-Ala678), wild type (domain or fragment, UniProt Q460N3 481-678, looked up)
chain: NLPEHWTDMNHQLFCMVQLEPGQSEYNTIKDKFTRTCSSYAIEKIERIQNAFLWQSYQVKKRQMDIKNDHKNNERLLFHGTDADSVPYVNQHGFNRSCAGKNAVSYGKGTYFAVDASYSAKDTYSKPDSNGRKHMYVVRVLTGVFTKGRAGLVTPPPKNPHNPTDLFDSVTNNTRSPKLFVVFFDNQAYPEYLITFTA
notes: PARP15 (protein mono-ADP-ribosyltransferase PARP15), human, ART domain, residues Asn481-Ala678 of the canonical isoform (isoform 1); No tag cleavage is described; not copied; also called PARP15 ART WT; WT PARP15; source: E. coli BL21(DE3), purified (TALON IMAC, Superdex 75 SEC)
- Kd [8]: 0.313 µM

B4: auto-MARylated PARP15 ART domain (Asn481-Ala678) (domain or fragment, human, UniProt Q460N3 481-678, looked up)
chain: NLPEHWTDMNHQLFCMVQLEPGQSEYNTIKDKFTRTCSSYAIEKIERIQNAFLWQSYQVKKRQMDIKNDHKNNERLLFHGTDADSVPYVNQHGFNRSCAGKNAVSYGKGTYFAVDASYSAKDTYSKPDSNGRKHMYVVRVLTGVFTKGRAGLVTPPPKNPHNPTDLFDSVTNNTRSPKLFVVFFDNQAYPEYLITFTA
modifications: mono-ADP-ribosylated by auto-modification with NAD+; sites not stated
notes: PARP15, human, ART domain, residues Asn481-Ala678 of the canonical isoform; same construct as m1 after auto-MARylation; source: E. coli BL21(DE3), purified; 40 µM incubated with 100 µM NAD+ for 1 h, NAD+ removed on a desalting column
- binding result [9]: binds

B5: PARP15 macrodomain-2 + ART domain construct (m2-ART; Gly287-Ala678) (domain or fragment, human, UniProt Q460N3 287-678, looked up)
chain: GTVSKPCFTAYEMKIGAITFQVATGDIATEQVDVIVNSTARTFNRKSGVSRAILEGAGQAVESECAVLAAQPHRDFIITPGGCLKCKIIIHVPGGKDVRKTVTSVLEECEQRKYTSVSLPAIGTGNAGKNPITVADNIIDAIVDFSSQHSTPSLKTVKVVIFQPELLNIFYDSMKKRDLSASLNFQSTFSMTTCNLPEHWTDMNHQLFCMVQLEPGQSEYNTIKDKFTRTCSSYAIEKIERIQNAFLWQSYQVKKRQMDIKNDHKNNERLLFHGTDADSVPYVNQHGFNRSCAGKNAVSYGKGTYFAVDASYSAKDTYSKPDSNGRKHMYVVRVLTGVFTKGRAGLVTPPPKNPHNPTDLFDSVTNNTRSPKLFVVFFDNQAYPEYLITFTA
notes: PARP15, human, macrodomain-2 and ART domain, residues Gly287-Ala678 of the canonical isoform (isoform 1); synthetic gene, codon optimised for E. coli, in pET151/TOPO; also called PARP15 m2-ART; PARP15 isoform-2 (m2-ART); source: E. coli BL21(DE3), purified (HiTrap TALON, Superdex 200 SEC, HiTrap SP XL cation exchange)
- binding result [10]: binds
